The text below walks through data of US20260265379A1 (IMCHECK THERAPEUTICS, published 2026).

The target of test [1] is T1, PD-1 at the surface of Jurkat-PD-1 cells (human, UniProt Q15116 25-288).
T1 construct: whole, on cells
Briefly: flow cytometry, Jurkat-PD-1 cells.

The target of a further test is T2, recombinant human BTN3A1 (human, UniProt O00481 30-254).
T2 construct: Soluble form of the antigen used in SPR; also called rhBTN3A1; recombinant BTN3A1 protein
Put plainly: SPR. How it is done: (§1) SPR measures the interactions between two or more biomolecules. In capture kinetics analysis, an antibody is immobilized onto a gold-plated prism. The immobilized antibody is referred to as the ligand. An injection of antigen, referred to as the analyte, is carried out, often as a concentration series. The captured analytes are removed from the sensor chip surface using a regenerating agent, for example a low pH or high ionic strength solution. If investigating binding to several analytes, the antibodies are recaptured from solution before each analyte titration series. The instrument records the changes in refractive indexes (due to the accumulation or depletion of mass) in time and plots the results as sensorgrams.
(§2) Affinity measurements with respect to BTN3A, PD-1 and PD-L1 were performed by SPR technology, for instance in a Carterra LSA Platform instrument using a soluble form of the antigen as the analyte and the antibody as the ligand. Binding was also assessed through in cellulo binding assays, on cell lines (e.g. HEK293T cells) genetically modified to express the targets of interest or genetically modified to extinct target expression.
(§3) The 69 produced bsAbs and control mAbs were also evaluated for their binding affinity to recombinant proteins by SPR assays. The equilibrium dissociation constant (KD) was then calculated for constructs showing detectable binding.
(SPR reads the build-up and loss of mass on a sensor chip optically.)

The next test deals with T3, recombinant human PD-1 (human, UniProt Q15116 25-167, limits assumed).
T3 construct: Soluble antigen in SPR; also called rhPD-1
Briefly: SPR. The procedure: as §1, §2, §3

Test [2] has as its target T4, BTN3A1 at the surface of HEK-BTN3A1 cells (human, UniProt O00481 30-513).
T4 construct: HEK 293T BTN2A/BTN3A KO cells transduced with a BTN3A1 expressing vector
Briefly: flow cytometry, HEK-BTN3A1 cells. On the technique in general: A flow cytometer gives signals particle by particle.

The target in test [3] is T5, PD-L1 at the surface of transduced cells (UniProt Q9NZQ7 19-290, limits assumed).
T5 construct: whole, on cells; CHO-PD-L1 cells in flow cytometry, Raji-PD-L1 cells in the reporter assay; also called CHO-PD-L1; Raji-PD-L1
Put plainly: flow cytometry, CHO-PD-L1 cells.

The target of test [4] is T5, PD-L1 at the surface of transduced cells. Put plainly: cell-based or functional assay.
The target of test [5] is T1, PD-1 at the surface of Jurkat-PD-1 cells. Briefly: cell-based or functional assay.

T2 sequence (O00481 30-254 limits assumed): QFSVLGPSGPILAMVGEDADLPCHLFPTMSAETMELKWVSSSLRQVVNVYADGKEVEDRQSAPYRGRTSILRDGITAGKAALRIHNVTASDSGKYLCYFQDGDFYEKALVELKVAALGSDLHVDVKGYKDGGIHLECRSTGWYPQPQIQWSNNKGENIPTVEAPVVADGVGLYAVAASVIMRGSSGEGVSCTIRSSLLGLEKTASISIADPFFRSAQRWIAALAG
T4 sequence (O00481 30-513 limits assumed): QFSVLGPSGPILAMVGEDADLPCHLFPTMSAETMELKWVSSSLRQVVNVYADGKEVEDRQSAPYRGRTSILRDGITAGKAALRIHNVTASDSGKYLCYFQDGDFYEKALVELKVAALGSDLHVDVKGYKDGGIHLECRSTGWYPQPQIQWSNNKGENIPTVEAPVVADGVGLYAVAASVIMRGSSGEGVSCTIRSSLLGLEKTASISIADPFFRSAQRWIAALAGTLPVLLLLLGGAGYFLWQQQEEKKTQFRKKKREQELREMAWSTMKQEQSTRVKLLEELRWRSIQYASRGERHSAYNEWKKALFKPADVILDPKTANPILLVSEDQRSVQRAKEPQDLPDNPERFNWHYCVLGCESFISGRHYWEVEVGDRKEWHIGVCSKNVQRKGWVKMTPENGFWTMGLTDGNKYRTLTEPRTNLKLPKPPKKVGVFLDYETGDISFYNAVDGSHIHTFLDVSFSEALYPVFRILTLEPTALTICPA
T5 sequence (Q9NZQ7 19-290 limits assumed): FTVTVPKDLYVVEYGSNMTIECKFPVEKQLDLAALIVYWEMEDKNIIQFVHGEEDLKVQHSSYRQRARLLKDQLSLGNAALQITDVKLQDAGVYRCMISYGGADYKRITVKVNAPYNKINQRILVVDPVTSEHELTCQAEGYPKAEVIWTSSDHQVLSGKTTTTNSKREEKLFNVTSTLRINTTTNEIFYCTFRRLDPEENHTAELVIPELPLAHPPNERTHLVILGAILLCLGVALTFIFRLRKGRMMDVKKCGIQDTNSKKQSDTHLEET
T1 sequence (Q15116 25-288): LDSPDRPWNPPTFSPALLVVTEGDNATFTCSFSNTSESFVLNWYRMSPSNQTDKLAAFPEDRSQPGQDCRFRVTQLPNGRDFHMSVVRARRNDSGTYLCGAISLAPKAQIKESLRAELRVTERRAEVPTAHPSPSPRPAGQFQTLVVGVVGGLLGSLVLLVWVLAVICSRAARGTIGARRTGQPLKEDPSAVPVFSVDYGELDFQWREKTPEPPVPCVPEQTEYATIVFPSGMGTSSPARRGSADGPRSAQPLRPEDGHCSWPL
T3 sequence (Q15116 25-167 limits assumed): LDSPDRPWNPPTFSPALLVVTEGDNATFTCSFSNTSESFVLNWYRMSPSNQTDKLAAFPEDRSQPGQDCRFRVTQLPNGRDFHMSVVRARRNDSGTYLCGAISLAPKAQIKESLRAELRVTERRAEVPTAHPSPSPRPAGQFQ

B1: bsAb021 (bispecific antibody)
heavy: QVQLVQSGAEVKKPGASVKLSCKASGYIFTRYYMYWVKQRPGQGLEWIGEINPNNGGTKFNEKFKNRATLTVDKSISTAYMELSRLRSDDTAVYYCSREDDYDGTPFAMDYWGQGTLVTVSSGGGGSGGGGSGGGGSGGGGSDIQMTQSPSSLSASVGDRVTITCHASQNINVWLSWYQQKPGKAPKLLIYKASNLHTGVPSRFTGSGSGTDFTFTISSLQPEDIATYYCQQGQTYPYTFGQGTKLEIKGGGGSGGGGSGGGGSGGGGSQVQLVQSGVEVKKPGASVKVSCKASGYTFTNYYMYWVRQAPGQGLEWMGGINPSNGGTNFNEKFKNRVTLTTDSSTTTAYMELKSLQFDDTAVYYCARRDYRFDMGFDYWGQGTTVTVSSASTKGPSVFPLAPSSKSTSGGTAALGCLVKDYFPEPVTVSWNSGALTSGVHTFPAVLQSSGLYSLSSVVTVPSSSLGTQTYICNVNHKPSNTKVDKRVEPKSCDKTHTCPPCPAPEFEGGPSVFLFPPKPKDTLMISRTPEVTCVVVDVSHEDPEVKFNWYVDGVEVHNAKTKPREEQYNSTYRVVSVLTVLHQDWLNGKEYKCKVSNKALPASIEKTISKAKGQPREPQVYTLPPSREEMTKNQVSLTCLVKGFYPSDIAVEWESNGQPENNYKTTPPVLDSDGSFFLYSKLTVDKSRWQQGNVFSCSVMHEALHNHYTQKSLSLSPG
light: EIVLTQSPATLSLSPGERATLSCRASKGVSTSGYSYLHWYQQKPGQAPRLLIYLASYLESGVPARFSGSGSGTDFTLTISSLEPEDFAVYYCQHSRDLPLTFGGGTKVEIKRTVAAPSVFIFPPSDEQLKSGTASVVCLLNNFYPREAKVQWKVDNALQSGNSQESVTEQDSKDSTYSLSSTLTLSKADYEKHKVYACEVTHQGLSSPVTKSFNRGEC
notes: IgG anti-PD-1, scFv anti-BTN3A
On to B1, for which the “MFI at 10 nM” value in test [1] was determined as 186000 MFI; in test [2], 816000 MFI. The “MFI at 100 nM” value came out at 275000 MFI in test [1] and 944000 MFI in test [2]. The figures for the equilibrium dissociation constant (Kd) with recombinant human BTN3A1 and with recombinant human PD-1 were 0.068 nM and 1.5 nM, respectively.

B2: bsAb048 (bispecific antibody)
heavy 1: EIVLTQSPGTLSLSPGERATLSCRASQRVSSSYLAWYQQKPGQAPRLLIYDASSRATGIPDRFSGSGSGTDFTLTISRLEPEDFAVYYCQQYGSLPWTFGQGTKVEIKGGGGSGGGGSGGGGSGGGGSEVQLVESGGGLVQPGGSLRLSCAASGFTFSRYWMSWVRQAPGKGLEWVANIKQDGSEKYYVDSVKGRFTISRDNAKNSLYLQMNSLRAEDTAVYYCAREGGWFGELAFDYWGQGTLVTVSSGGGGSGGGGSGGGGSGGGGSQVQLVQSGAEVKKPGASVKLSCKASGYIFTRYYMYWVKQRPGQGLEWIGEINPNNGGTKFNEKFKNRATLTVDKSISTAYMELSRLRSDDTAVYYCSREDDYDGTPFAMDYWGQGTLVTVSS
heavy 2: QVQLVQSGAEVKKPGASVKLSCKASGYIFTRYYMYWVKQRPGQGLEWIGEINPNNGGTKFNEKFKNRATLTVDKSISTAYMELSRLRSDDTAVYYCSREDDYDGTPFAMDYWGQGTLVTVSS
light: not shown
notes: IgG anti-BTN3A, one scFv anti-PD-L1; not shown: IgG1 CH1-hinge-CH2-CH3
As for B2, in test [3], the “MFI at 10 nM” value turned out to be 1.18e+06 MFI and the “MFI at 100 nM” value turned out to be 1.36e+06 MFI. In addition, the Kd (usually the free concentration of one partner at which half of the binding sites on the other are occupied at equilibrium, for simple one-to-one binding) with recombinant human BTN3A1 worked out at 0.08 nM. In test [4], the “Jurkat-PD-1 activation at 10 nM” value is 7.4 fold-change to medium and the “Jurkat-PD-1 activation at 100 nM” value was 8.9 fold-change to medium. Moreover, in test [2], the “MFI at 10 nM” value was 592000 MFI and the “MFI at 100 nM” value turned out to be 1.02e+06 MFI.

B3: bsAb050 (bispecific antibody)
heavy 1: EVQLVESGGGLVQPGGSLRLSCAASGFTFSRYWMSWVRQAPGKGLEWVANIKQDGSEKYYVDSVKGRFTISRDNAKNSLYLQMNSLRAEDTAVYYCAREGGWFGELAFDYWGQGTLVTVSSGGGGSGGGGSGGGGSGGGGSEIVLTQSPGTLSLSPGERATLSCRASQRVSSSYLAWYQQKPGQAPRLLIYDASSRATGIPDRFSGSGSGTDFTLTISRLEPEDFAVYYCQQYGSLPWTFGQGTKVEIKGGGGSGGGGSGGGGSGGGGSQVQLVQSGAEVKKPGASVKLSCKASGYIFTRYYMYWVKQRPGQGLEWIGEINPNNGGTKFNEKFKNRATLTVDKSISTAYMELSRLRSDDTAVYYCSREDDYDGTPFAMDYWGQGTLVTVSS
heavy 2: QVQLVQSGAEVKKPGASVKLSCKASGYIFTRYYMYWVKQRPGQGLEWIGEINPNNGGTKFNEKFKNRATLTVDKSISTAYMELSRLRSDDTAVYYCSREDDYDGTPFAMDYWGQGTLVTVSS
light: not shown
notes: as for B2
On to B3, for which, in test [3], the “MFI at 10 nM” value was 1.18e+06 MFI and the “MFI at 100 nM” value is 1.32e+06 MFI. The Kd in the test with recombinant human BTN3A1 was 0.08 nM. Also, in test [4], the “Jurkat-PD-1 activation at 10 nM” value is 6.9 fold-change to medium and the “Jurkat-PD-1 activation at 100 nM” value is 7.8 fold-change to medium. Besides, in test [2], the “MFI at 10 nM” value was determined as 535000 MFI and the “MFI at 100 nM” value was 1.2e+06 MFI.

B4: bsAb003 (bispecific antibody, human IgG1, kappa)
heavy: QVQLVQSGAEVKKPGASVKLSCKASGYIFTRYYMYWVKQRPGQGLEWIGEINPNNGGTKFNEKFKNRATLTVDKSISTAYMELSRLRSDDTAVYYCSREDDYDGTPFAMDYWGQGTLVTVSSASTKGPSVFPLAPSSKSTSGGTAALGCLVKDYFPEPVTVSWNSGALTSGVHTFPAVLQSSGLYSLSSVVTVPSSSLGTQTYICNVNHKPSNTKVDKRVEPKSCDKTHTCPPCPAPEFEGGPSVFLFPPKPKDTLMISRTPEVTCVVVDVSHEDPEVKFNWYVDGVEVHNAKTKPREEQYNSTYRVVSVLTVLHQDWLNGKEYKCKVSNKALPASIEKTISKAKGQPREPQVYTLPPSREEMTKNQVSLTCLVKGFYPSDIAVEWESNGQPENNYKTTPPVLDSDGSFFLYSKLTVDKSRWQQGNVFSCSVMHEALHNHYTQKSLSLSPGGGGGSGGGGSGGGGSGGGGSEVQLVESGGGLVQPGGSLRLSCAASGFTFSRYWMSWVRQAPGKGLEWVANIKQDGSEKYYVDSVKGRFTISRDNAKNSLYLQMNSLRAEDTAVYYCAREGGWFGELAFDYWGQGTLVTVSSGGGGSGGGGSGGGGSGGGGSEIVLTQSPGTLSLSPGERATLSCRASQRVSSSYLAWYQQKPGQAPRLLIYDASSRATGIPDRFSGSGSGTDFTLTISRLEPEDFAVYYCQQYGSLPWTFGQGTKVEIK
light: not shown
notes: IgG anti-BTN3A, scFv anti-PD-L1 (VH-VL) at heavy chain C-terminus
In the case of B4, the “MFI at 10 nM” value in test [3] is 722000 MFI. The Kd with recombinant human BTN3A1 is 0.073 nM. In test [4], the “Jurkat-PD-1 activation at 10 nM” value was 8.5 fold-change to medium and the “Jurkat-PD-1 activation at 100 nM” value is 6.9 fold-change to medium. For the same molecule, in test [2], the “MFI at 10 nM” value came to 500000 MFI and the “MFI at 100 nM” value was 950000 MFI.

B5: bsAb014 (bispecific antibody)
heavy: QVQLVQSGAEVKKPGASVKLSCKASGYIFTRYYMYWVKQRPGQGLEWIGEINPNNGGTKFNEKFKNRATLTVDKSISTAYMELSRLRSDDTAVYYCSREDDYDGTPFAMDYWGQGTLVTVSSASTKGPSVFPLAPSSKSTSGGTAALGCLVKDYFPEPVTVSWNSGALTSGVHTFPAVLQSSGLYSLSSVVTVPSSSLGTQTYICNVNHKPSNTKVDKRVEPKSCDKTHTCPPCPAPEFEGGPSVFLFPPKPKDTLMISRTPEVTCVVVDVSHEDPEVKFNWYVDGVEVHNAKTKPREEQYNSTYRVVSVLTVLHQDWLNGKEYKCKVSNKALPASIEKTISKAKGQPREPQVYTLPPSREEMTKNQVSLTCLVKGFYPSDIAVEWESNGQPENNYKTTPPVLDSDGSFFLYSKLTVDKSRWQQGNVFSCSVMHEALHNHYTQKSLSLSPG
light: not shown
notes: IgG anti-BTN3A, scFv anti-PD-1
For the molecule B5, in test [1], the “MFI at 10 nM” value stood at 165000 MFI and the “MFI at 100 nM” value was 290000 MFI. In addition, in the test with recombinant human BTN3A1, the Kd is 0.083 nM. Besides, in test [5], the “Jurkat-PD-1 activation at 10 nM” value is 5.9 fold-change to medium and the “Jurkat-PD-1 activation at 100 nM” value is 1.9 fold-change to medium. For the same molecule, in test [2], the “MFI at 10 nM” value was 464000 MFI and the “MFI at 100 nM” value was found to be 812000 MFI.
